Target: T1, PD-1H (Homo sapiens, UniProt Q9H7M9)
T1 construct: Flag (N); expressed in transfected cells; host or cells: HEK293
Assay: Co-immunoprecipitation of c-myc tagged MMP-13 constructs with Flag-PD-1H in HEK293 cells
Format: binding
Details: HEK293 cells co-transfected with Flag-PD-1H; IP with anti-c-myc; FIG. 5A
Procedure: To identify key binding domains between PD-1H and MMP-13, a series of truncated deletion mutants was tested. The MMP-13 zymogen has a pro-peptide domain (aa 20-103) that maintains latency, a catalytic domain (aa 103-268) containing the catalytic zinc-binding motif, and a hinge linker region (aa 269-280) that connects the catalytic domain region with the C-terminal hemopexin domain (aa 281-471).
WCL were analyzed as input. […].

B1: Hem: MMP-13 truncation mutant containing the hemopexin domain (delta aa 37-267) (protein)
chain: LPLPSGGDEDDLSEEDLPGDEDPNPKHPKTPDKCDPSLSLDAITSLRGETMIFKDRFFWRLHPQQVDAELFLTKSFWPELPNRIDAAYEHPSHDLIFIFRGRKFWALNGYDILEGYPKKISELGLPKEVKKISAAVHFEDTGKTLLFSGNQVWRYDDTNHIMDKDYPRLIEEDFPGIGDKVDAVYEKNGYIYFFNGPIQFEYSIWSNRIVRVMPANSILWC
modifications: left off: small tags and cut ends
In the case of B1, the “binding to PD-1H (co-IP)” value is reported as “retained only a fraction of the wild-type binding activity”.
